Results taken from patent US20170158762A1 (ANAPTYSBIO, published 2017).

Columns and labels:
[1] = molecular target: cell surface DDR1 on T47D cells and 293/DDR1 cells (UniProt Q08345); experiment: cell-based or functional assay
[2] = molecular target: T1, Monomeric soluble human DDR1-avi-his, APE1469.6 (hDDR1) (human, UniProt Q08345 21-416, limits assumed); experiment: SPR (BIACORE T200), antibody captured on anti-human IgG Fc, monomeric DDR1-avi-his as analyte, 25 C, 1:1 fit
T1 construct: also called hDDR1-avi-his; huDDR1; not shown: avi tag and his tag
Description: anti-Human IgG (Fc-specific, ≈10,000 RU) (GE Healthcare, Little Chalfont, Buckinghamshire, UK) was immobilized on a BIACORE™[…] chip using EDC-activated amine coupling chemistry. Antibodies (0.5 μg/mL, 50 second capture time at 10 μl/minute) were then captured using this surface to a target capture level of ˜125 RU. Monomeric soluble human DDR1-avi-his was then flowed over captured antibody (300 second association, 600 second dissociation) using a three-fold serial dilution series from 200 nM to 0.27 nM. Runs were performed at 25° C. and HBS-EP+, pH 7.6 buffer was used for all dilutions (Teknova, Hollister, Calif.). Captured antibody and antigen were removed between each cycle using two regeneration steps with 3M MgCl₂ (60 seconds contact time) to ensure a fresh binding surface for each concentration of antigen. The resulting sensorgrams were fit globally using a 1:1 binding model to calculate on- and off-rates (ka and kd, respectively) and dissociation constants as a measure of overall affinity (KD).

[3] = molecular target: T1, Monomeric soluble human DDR1-avi-his, …; experiment: ELISA on coated hDDR1-avi-his; antibody kept in normal mouse serum (day 0, 1, 4, 7 at 37 C; day 7 at 4 C) or PBS day 0; absorbance 450-540 nm
Description: The APE05570 and APE05571 antibodies described in Table 4 were tested for the ability to bind cell surface DDR in mouse serum. The antibodies were incubated in normal mouse serum for 1, 4, or 7 days at 37° C. Varying concentrations of the antibodies were then analyzed for ability to bind to DDR1 by an ELISA assay. Briefly, hDDR1-avi-his was coated on plates at 1 μg/m overnight at 4° C. and washed three times in phosphate buffered saline with Tween (PBST). Plates were then blocked with 3% BSA/PBS (200 μl/well) for one hour. The antibodies were then diluted, added to the washed plates, and incubated for two hours at room temperature. Bound antibodies were detected with goat anti HuIgG-(H+L chain)-horseradish peroxidase (HRP) at a dilution of 1:10,000. After washing the plates, 100 μl of 3,3′,5,5′-tetramethylbenzidine (TMB) substrate was added to detect antibody, and plates were read at 450 nm using a SpectraMax™ microplate reader (Molecular Devices, LLC., Sunnyvale, Calif.).

T1 sequence (Q08345 21-416 limits assumed): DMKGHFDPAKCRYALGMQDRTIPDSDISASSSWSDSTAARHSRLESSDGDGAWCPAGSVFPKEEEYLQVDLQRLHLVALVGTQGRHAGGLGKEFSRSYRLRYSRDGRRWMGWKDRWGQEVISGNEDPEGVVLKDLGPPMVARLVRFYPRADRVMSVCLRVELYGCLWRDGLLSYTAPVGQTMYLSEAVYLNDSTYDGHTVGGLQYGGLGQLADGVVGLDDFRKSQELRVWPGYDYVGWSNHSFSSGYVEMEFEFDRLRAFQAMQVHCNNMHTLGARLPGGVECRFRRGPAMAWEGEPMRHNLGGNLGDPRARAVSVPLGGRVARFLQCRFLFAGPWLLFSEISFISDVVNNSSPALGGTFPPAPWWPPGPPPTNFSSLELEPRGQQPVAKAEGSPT
Sequence of cell surface DDR1 on T47D cells and 293/DDR1 cells (Q08345 19-913, stated change not applied): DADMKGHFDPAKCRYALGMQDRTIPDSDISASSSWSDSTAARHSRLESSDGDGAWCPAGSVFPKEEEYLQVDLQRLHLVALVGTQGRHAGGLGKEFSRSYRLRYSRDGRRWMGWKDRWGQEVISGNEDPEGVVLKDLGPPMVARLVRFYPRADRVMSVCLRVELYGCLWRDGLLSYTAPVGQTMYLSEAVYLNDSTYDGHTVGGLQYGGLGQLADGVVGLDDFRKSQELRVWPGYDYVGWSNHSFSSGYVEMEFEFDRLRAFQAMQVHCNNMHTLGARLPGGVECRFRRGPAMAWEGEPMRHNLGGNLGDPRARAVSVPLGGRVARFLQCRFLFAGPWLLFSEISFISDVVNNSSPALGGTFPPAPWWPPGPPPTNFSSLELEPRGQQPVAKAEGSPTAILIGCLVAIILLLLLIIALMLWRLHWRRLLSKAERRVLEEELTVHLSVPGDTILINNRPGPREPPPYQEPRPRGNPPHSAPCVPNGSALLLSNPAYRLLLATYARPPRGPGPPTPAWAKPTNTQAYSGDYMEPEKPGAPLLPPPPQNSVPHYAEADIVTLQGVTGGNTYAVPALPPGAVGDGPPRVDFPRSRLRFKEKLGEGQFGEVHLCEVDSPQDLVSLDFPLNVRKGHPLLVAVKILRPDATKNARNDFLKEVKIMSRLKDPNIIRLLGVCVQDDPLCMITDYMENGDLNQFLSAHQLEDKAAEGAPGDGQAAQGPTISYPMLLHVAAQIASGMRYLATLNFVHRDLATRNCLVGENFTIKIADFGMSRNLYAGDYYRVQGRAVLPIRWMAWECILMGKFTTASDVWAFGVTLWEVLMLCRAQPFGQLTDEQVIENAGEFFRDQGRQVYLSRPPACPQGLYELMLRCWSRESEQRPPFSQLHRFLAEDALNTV

| P-DDR1 IC50 (nM); collagen I-stimulated T47D cells, Phospho-DDR1 ELISA [1] [nM] | Kd [2] [nM] | koff [2] [s⁻¹] | kon [2] [M⁻¹ s⁻¹] | EC50 (read off the curve) [3] [ng/mL] | Binder |
| --- | --- | --- | --- | --- | --- |
| 27.6 | 43.8 | 0.0222 | 507000 |  | APE05552 (antibody, V domains shown, from the stated CDR positions they appear to be variable regions; human IgG (captured with anti-human IgG Fc); also called APE05552.2) VH: EVQLVQSGAEVKKPGESLKISCKGSGYSFTNSYWIGWVRQMPGKGLEWMGMIYPGDSDTRYSPSFQGQVTISSDKSISTAYLQWNSLKASDTAVYYCAKDLAPSAYYDYWGQGTLVTVSS VL: EIVLTQSPGTLSLSPGERATLSCRASQSVRSSYLAYLAWYQQKPGQAPRLLIYDASSRATGIPDRFSGSGSGTDFTLTISRLEPEDFAVYYCQQYGRLPYTFGQGTRLEIKR |
| 19.3 | 47 | 0.0233 | 496000 | ~7 | APE05571 (antibody, V domains shown, from the stated CDR positions they appear to be variable regions; human IgG (captured with anti-human IgG Fc); also called APE05571.1) VH: EVQLVQSGAEVKKPGESLKISCKGSGYSFTNSYWIGWVRQMPGKGLEWMGMIYPGDSDTRYSPSFQGQVTISSDKSISTAYLQWASLKASDTAVYYCAKDLTPSAYYDYWGQGTLVTVSS VL: EIVLTQSPGTLSLSPGERATLSCRASQSVRSSYLAYLAWYQQKPGQAPRLLIYDASSRATGIPDRFSGSGSGTDFTLTISRLEPEDFAVYYCQQYGRLPYTFGQGTRLEIKR |
| 26.1 | 51.4 | 0.0284 | 551000 |  | APE05551 (antibody, V domains shown, from the stated CDR positions they appear to be variable regions; human IgG (captured with anti-human IgG Fc); also called APE05551.2) VH: EVQLVQSGAEVKKPGESLKISCKGSGYSFTNSYWIGWVRQMPGKGLEWMGMIYPGDSDTRYSPSFQGQVTISSDKSISTAYLQWNSLKASDTAVYYCAKDLAPSAYYNYWGQGTLVTVSS VL: EIVLTQSPGTLSLSPGERATLSCRASQSVRSSYLAYLAWYQQKPGQAPRLLIYDASSRATGIPDRFSGSGSGTDFTLTISRLEPEDFAVYYCQQYGRLPYTFGQGTRLEIKR |
